# T1: Human Id1: Histidine (human, UniProt P41134 1-155, limits assumed)
# T1 construct: Fusion protein made in E. coli from vector pGW07; also called h-Id1: his; not shown: His tag
# T1 sequence (looked up): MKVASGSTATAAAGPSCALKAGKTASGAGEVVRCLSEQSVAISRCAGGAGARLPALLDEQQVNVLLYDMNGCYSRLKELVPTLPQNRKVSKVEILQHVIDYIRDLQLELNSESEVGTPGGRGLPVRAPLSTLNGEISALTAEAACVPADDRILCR
# T2: Human Id3: Histidine (human, UniProt Q02535 1-119 at identity 1.00))
# T2 construct: Fusion protein made in E. coli from vector pGW07; also called h-Id3: His; Human Id3 (coated wells); not shown: His tag
# T2 chain: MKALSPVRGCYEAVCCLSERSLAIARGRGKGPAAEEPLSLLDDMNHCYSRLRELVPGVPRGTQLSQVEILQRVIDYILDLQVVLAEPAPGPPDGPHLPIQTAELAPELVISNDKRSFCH
# T3: Mouse Id2: Histidine (mouse, UniProt P41136 1-134, limits assumed)
# T3 construct: Fusion protein made in E. coli from vector pGW07; also called m-Id2: His; not shown: His tag
# T3 sequence (looked up): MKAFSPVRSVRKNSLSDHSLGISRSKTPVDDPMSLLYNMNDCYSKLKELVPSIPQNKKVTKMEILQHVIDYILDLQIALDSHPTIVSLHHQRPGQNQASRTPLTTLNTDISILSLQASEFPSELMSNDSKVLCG
# T4: Human Id2: Histidine (human, UniProt Q02363 1-134, limits assumed)
# T4 construct: Fusion protein made in E. coli from vector pGW07; also called h-Id2: His; not shown: His tag
# T4 sequence (looked up): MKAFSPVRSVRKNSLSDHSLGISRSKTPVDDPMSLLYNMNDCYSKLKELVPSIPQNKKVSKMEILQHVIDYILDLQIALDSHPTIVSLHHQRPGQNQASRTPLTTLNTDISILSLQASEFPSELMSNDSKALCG
# T5: Mouse Id1: Histidine (mouse, UniProt P20067-2 1-148, limits assumed)
# T5 construct: Fusion protein made in E. coli from vector pGW07; also called m-Id1-His; not shown: His tag
# T5 sequence (looked up): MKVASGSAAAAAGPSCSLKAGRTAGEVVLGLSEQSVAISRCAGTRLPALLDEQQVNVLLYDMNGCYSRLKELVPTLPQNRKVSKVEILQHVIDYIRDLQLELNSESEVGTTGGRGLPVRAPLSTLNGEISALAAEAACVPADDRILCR
# T6: Mouse Id3: Histidine (mouse, UniProt P41133 1-119)
# T6 construct: Fusion protein made in E. coli from vector pGW07; also called m-Id3: His; Mouse Id3 (coated wells); not shown: His tag
# T6 sequence: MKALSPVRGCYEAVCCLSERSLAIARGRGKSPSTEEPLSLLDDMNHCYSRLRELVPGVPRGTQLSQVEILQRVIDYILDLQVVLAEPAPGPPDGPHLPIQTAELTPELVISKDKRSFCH
# What was measured:
# [1] = biological target: T7, glutathione S-transferase (GST) (UniProt P08515 1-218 = GST); test: ELISA, Ab 0.050 µg/ml
# T7 construct: also called carrier protein GST
# Human Id1: Histidine [2] = biological target: T1, Human Id1: Histidine; test: ELISA, Ab 0.025 µg/ml
# Protocol: (§1) The rabbit monoclonal anti-human Id3 (clone #3-3) and the rabbit monoclonal anti-mouse/human Id3 (clones #6-1, 16-1, 17-3, and 42-1) produced in Example 6 were tested reactivity against the following antigens: mouse Id1:His, human Id1:His, mouse Id2:His, human Id2:His, mouse Id3:His, human Id3:His, mouse Id4:His, human Id4:His and GST.
# (§2) 1. Microtiter wells (prepared in accordance with Example 6) were coated (0.1 μg/well) with mouse Id1:His, human Id1:His, human Id2:His, human Id3:His, and 1.0 μg/well with GST. [0155] 2. Antibody Diluent: 0.25% (w/v) BSA in 0.015M KPO₄ Buffer, 0.85% (w/v) NaCl, 0.1% (w/v) NaN₃, pH=7.40 [0156] 3. Rabbit monoclonal anti-human Id3 (clone #3-3) prepared in Example 7 was diluted to […] with the antibody diluent. […] 4. Rabbit monoclonal anti-mouse/human Id3 (clones #6-1, 16-1, 17-3, 42-1) prepared in Example 7 was diluted to 0.005, 0.010, 0.025, 0.05, 0.10, 0.25, and 0.50 μg/ml with the antibody diluent. […] 5. Conjugate Diluent: 50% (v/v) which consists of an aqueous solution containing Fetal Bovine Serum in 0.05 M Tris, 1% (v/v) Proclin-300, pH 7.6. [0159] 6. Conjugate: Goat anti-rabbit IgG (H+L)-HRP conjugate. [0160] 7. TMB reagent. […] 8. Stop solution (1 N HCI). Method
# (§3) 1. Dispense 100 μL of antibody diluent, diluted rabbit monoclonal human Id3, and mouse/human Id3 hybridoma supernatants into appropriate wells. […] 2. Incubate at room temperature with mechanical shaking at 750 rpm for 90 minutes. [0165] 3. Remove the incubation mixture by flicking plate content into an appropriate waste container followed by rinsing the wells 5 times with distilled water. [0166] 4. Strike the wells sharply onto absorbent paper or paper towels to remove all residual water droplets. [0167] 5. Dispense 100 μL of 1:50,000 Goat Anti-Rabbit IgG-HRP Conjugate Reagent into each well. Gently mix for 5 seconds. [0168] 6. Incubate at room temperature with mechanical shaking at 750 rpm for 90 minutes. [0169] 7. Repeat procedures 3 and 4. [0170] 8. Dispense 100 μL of TMB Reagent into each well. Gently mix for 5 seconds. [0171] 9. Incubate at room temperature with mechanical shaking at 750 rpm for 20 minutes. […] 10.
# Human Id3: Histidine [3] = biological target: T2, Human Id3: Histidine; test: ELISA, Ab 0.025 µg/ml
# Protocol: as §1, §2, §3
# Mouse Id2: Histidine [4] = biological target: T3, Mouse Id2: Histidine; test: ELISA, Ab 0.025 µg/ml
# Protocol: as §1, §2, §3
# Human Id2: Histidine [5] = biological target: T4, Human Id2: Histidine; test: ELISA, Ab 0.025 µg/ml
# Protocol: as §1, §2, §3
# Human Id1: Histidine [6] = biological target: T1, Human Id1: Histidine; test: ELISA, Ab 0.010 µg/ml
# Protocol: as §1, §2, §3
# Human Id3: Histidine [7] = biological target: T2, Human Id3: Histidine; test: ELISA, Ab 0.010 µg/ml
# Protocol: as §1, §2, §3
# Mouse Id1: Histidine = biological target: T5, Mouse Id1: Histidine; test: ELISA, Ab 0.010 µg/ml
# Protocol: as §1, §2, §3
# Mouse Id3: Histidine = biological target: T6, Mouse Id3: Histidine; test: ELISA, Ab 0.010 µg/ml
# Protocol: as §1, §2, §3
# Mouse Id2: Histidine [8] = biological target: T3, Mouse Id2: Histidine; test: ELISA, Ab 0.010 µg/ml
# Protocol: as §1, §2, §3
# Human Id2: Histidine [9] = biological target: T4, Human Id2: Histidine; test: ELISA, Ab 0.010 µg/ml
# Protocol: as §1, §2, §3
# T7 sequence (P08515 whole entry): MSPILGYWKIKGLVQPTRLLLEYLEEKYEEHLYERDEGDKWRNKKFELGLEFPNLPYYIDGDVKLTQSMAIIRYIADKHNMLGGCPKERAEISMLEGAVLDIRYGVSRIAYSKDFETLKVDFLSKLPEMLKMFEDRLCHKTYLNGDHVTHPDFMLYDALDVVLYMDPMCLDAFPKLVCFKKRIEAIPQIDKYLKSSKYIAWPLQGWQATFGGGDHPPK
Binder,A450 [1] [A450],A450 (Human Id1: Histidine [2]) [A450],A450 (Human Id3: Histidine [3]) [A450],A450 (Mouse Id2: Histidine [4]) [A450],A450 (Human Id2: Histidine [5]) [A450],A450 (Human Id1: Histidine [6]) [A450],A450 (Human Id3: Histidine [7]) [A450],A450 (Mouse Id1: Histidine) [A450],A450 (Mouse Id3: Histidine) [A450],A450 (Mouse Id2: Histidine [8]) [A450],A450 (Human Id2: Histidine [9]) [A450]
"rabbit monoclonal anti-mouse/human Id3, clone #BCH-4/#16-1 (antibody, V domains shown, Rabbit IgG from a rabbit hybridoma; also called m/h Id3 MoAb 16-1) VH: QSVEESGGRLVTPGTPLTLTCTASGFSLSSYYIHWVRQAPGKALEWIGYISDGGTTYYASWAKGRFTISKTSSTTVDLKMTSLTTEDTATYFCARQGFNIWGPGTLVTVSL VL: AVLTQTPSPVSAAVGGTVTISCQSSQSVYNNNWLSWFQQKSGQPPKLLIYETSKLESGVPSRFKGSGSGTQFTLTIIDVQCDDAATYYCLGGYWTTSDNNIFGGGTEVVVK",0.046,0.046,0.802,0.051,0.045,0.042,0.391,0.05,0.432,0.049,0.044
"rabbit monoclonal anti-mouse/human Id3, clone #BCH-4/#17-3 (antibody, V domains shown, Rabbit IgG from a rabbit hybridoma; also called m/h Id3 MoAb 17-3; BCH-3/#17-3) VH: QSVEESGGRLVTPGTPLTLTCTASGFSLSNVYIHWVRQAPGKGLEWIGYISDGDTARYATWAKGRFTISKTSSTTVNLKMTSLTTEDTATYFCARQGFNIWGPGTLVTVSL VL: AVLTQTPSPVSAAVGGTVSISCQSSQSVWNNNWLSWFQQKPGQPPKLLIYETSKLESGVPSRFKGSGSGTQFTLTISDVQCDDAATYYCLGGYWTTSDNNVFGGGTEVVVK",0.046,0.047,1.27,0.05,0.054,0.046,0.581,0.047,0.69,0.048,0.043
"rabbit monoclonal anti-mouse/human Id3, clone #BCH-4/#6-1 (antibody, V domains shown, Rabbit IgG from a rabbit hybridoma; also called m/h Id3 MoAb 6-1) VH: QSVEESGGRLVTPGTPLTLTCTASGFSLSNVYIHWVRQAPGKGLEWIGYISDGDTARYATWAKGRFTISKTSSTTVNLKMTSLTTEDTATYFCARQGFNIWGPGTLVTVSL VL: AVLTQTPSPVSAAVGGTVSISCQSSQSVWNNNWLSWFQQKPGQPPKLLIYETSKLESGVPSRFKGSGSGTQFTLTISDVQCDDAATYYCLGGYWTTSDNNVFGGGTEVVVK",0.047,0.048,0.974,0.048,0.045,0.049,0.491,0.044,0.539,0.048,0.044
"rabbit monoclonal anti-mouse/human Id3, clone #BCH-4/#42-1 (antibody, V domains shown, Rabbit IgG from a rabbit hybridoma; also called m/h Id3 MoAb 42-1) VH: QSVEESGGRLVTPGTPLTLTCTASGFSLSSYYIHWVRQAPGKALEWIGYISDGGTTYYASWAKGRFTISKTSSTTVDLKMTSLTTEDTATYFCARQGFNIWGPGTLVTVSL VL: AVLTQTPSPVSAAVGGTVTISCQSSQSVYNNNWLSWFQQKSGQPPKLLIYETSKLESGVPSRFKGSGSGTQFTLTIIDVQCDDAATYYCLGGYWSTSDNNIFGGGTEVVVK",0.049,0.043,1.44,0.052,0.071,0.045,0.713,0.043,0.756,0.05,0.046
"rabbit monoclonal anti-human Id3, clone #BCH-4/#3-3 (antibody, V domains shown, Rabbit IgG from a rabbit hybridoma; also called h Id3 MoAb 3-3) VH: QSVEESGGRLVTPGTPLTLTCTVSGIDLSSYAMSWVRQAPGKGLEWIGVIFPSNNVYYASWAKGRFTISKTSTTVDLKITSPTTEDTATYFCASMGAFDSWGPGTLVTVSS VL: QVLTQTPSPVSAAVGGTVTINCQASQSIYNDNDLAWFQQKPGQPPKLLIYDASTLTSGVPSRFKGSGSGTQFTLTISDLDCDDAATYYCAARYSGNIYGFGGGTEVVVK",0.048,0.049,–,0.048,0.044,0.046,–,0.047,–,0.045,0.043

# Reference: patent US20070178531A1 (BIOCHECK, published 2007)
